Paper PMC10816986, “The Role of Key Amino Acids of the Human Fe(II)/2OG-Dependent Dioxygenase ALKBH3 in Structural Dynamics and Repair Activity toward Methylated DNA” (International Journal of Molecular Sciences, 2024)

What was measured:
[1] = Far-UV CD spectroscopy, secondary structure content (BeStSel); type: physicochemical
Experimental: To assess the effect of key amino acid substitution on the ALKBH3’s secondary structure content circular CD spectra of each protein variant in the apo state were recorded in accordance with experimental conditions optimized in our previous study.
The secondary structure content was determined by processing experimental spectra using the […] (BeStSel, Budapest, Hungary) and CDSSTR (DichroWeb, London, UK) algorithms. […] A detailed description of the parameter optimization process for each algorithm is provided in our recent work. The BeStSel package was selected for further analysis as it provides more information regarding the structural organization of the protein. As follows from data summarized in Table 3, antiparallel β-strands predominate in the structure of the wild-type ALKBH3 (37.6%), with a considerable portion existing in right-twisted and relaxed conformations. The protein sequence also contains a significant number of loop motifs (12.6%) and poorly ordered structures (~44.7%), which may constitute the N-terminal domain. Only 5.2% of the amino acid sequence is composed of α-helices. Utilizing the protein architecture and topology prediction feature available in BeStSel, it was established that the obtained CD spectrum belongs (with a probability of 96%) to the class of β-proteins with a sandwich or β-barrel architecture. Such a distribution corresponds to the structure of ALKBH3 determined by X-ray crystallography for a truncated form of the enzyme lacking 69 amino acids from the N-terminus (PDB 2IUW). Specifically, the β7-β14 strands form two antiparallel sheets of a central “jellyroll” fold, which constitutes the catalytically active DSBH domain (Figure 1). Thus, the CD method we selected enabled us to determine the composition of the secondary structure of ALKBH3 with a high degree of precision.
Far-UV CD spectra from 185 to 280 nm were recorded using a J600 spectrometer (Jasco, Tokyo, Japan) in a 0.1 cm path lengths quartz cuvette (Starna Cells, CA, USA). In all cases, the protein sample (~50 nmol) was dialyzed two times against the CD buffer containing 10 mM of Potassium Phosphate (pH 7.8) and 50 mM of (NH4)2SO4. […] Data were corrected for a baseline by subtraction of the buffer spectrum and expressed as mean residue ellipticity [θ] […] To estimate the secondary structures, each spectrum between […] and 250 nm was analyzed by both the DichroWeb and BeStSel online programs using the CDSSTR method.
Figure 5 Far-UV CD spectra of wt (blue), Y143F (yellow), Y143A (green), L177A (red), and H191A (purple) ALKBH3 collected from 0.2 mg/mL protein at 11 °C in the absence of ligands. Each spectrum was measured three times, corrected for background, averaged, and expressed as mean residue ellipticity θ (deg·cm^2·dmol^−1).

[2] = molecular target: m3C substrate; experiment: Equilibrium fluorescence titration with methylated DNA; type: binding; settings: for Kd: 1 µM apoprotein, 2 mM EDTA, 25 °C, read-out: Dissociation constant Kd, m3C substrate; for weakening of contacts with the DNA substrate relative to wt: ratio of Kd for m3C substrate
Excerpt: To investigate the impact of selected mutations on ALKBH3’s ability to bind its cofactor, co-substrate, and methylated DNA, the fluorescent titration method was employed. It is well-established that enzyme–ligand binding typically leads to a protein conformational change, which in turn can alter the fluorescence intensity of tryptophan and tyrosine residues within the protein sequence. […] In this study, transitional metals (Fe(II), Ni(II), and Co(II)), 2OG, and the m3C substrate served as titrants. Protein fluorescence quenching was measured after the addition of an excess of the ligand to 1 µM of enzyme (Supplementary Figure S2). To determine the equilibrium dissociation constant’s Kd values, the resulting titration curves were analyzed using a non-linear regression algorithm (see Section 4.3 of “Materials and Methods” for details). […] As indicated by the data presented in Table 2, the stability of the wt ALKBH3 apoenzyme’s affinity to various ligands and damaged DNA generally corresponds to the stability of such complexes for AlkB and ALKBH2 enzymes. […] The binding of Ni(II) and Co(II) ions of similar radii was weakened by approximately two-fold. […] This behavior is more characteristic of the bacterial homolog AlkB rather than human ALKBH2 [7].
The affinity of the active site of ALKBH3 for methylated DNA was studied using the m3C substrate without fluorescent labels (see Section 4). […] The replacement of key amino acids leads to an approximate 1.4-fold weakening of contacts with the DNA substrate for the Y143F mutant, 2.3-fold for Y143A, 2-fold for L177A, and 1.5-fold for H191A. Therefore, the removal of the bulky side chain of Tyr143 dramatically affects the ability of ALKBH3 to bind damaged DNA, while withdrawal of its OH group only slightly weakens protein–DNA interactions.
The intrinsic tryptophan fluorescence quenching was monitored at the maximum of emission (345 nm, in most cases) using an excitation wavelength of 280 nm, and 5 nm slits. An amount of 2 mM of (NH4)2Fe(SO4)2·6H2O, 2 mM of NiSO4×7H2O, 2 mM of CoSO4·7H2O, 2 mM of 2OG, or 100 µM of m3C substrate was titrated into 1 µM of apoprotein (a free enzyme with no metal or 2OG added) in the presence of 50 mM of HEPES-KOH (pH 7.8), 50 mM of KCl, and 10 mM of MgCl2. When titrating with DNA, the buffer was supplemented with 2 mM of EDTA. The dissociation constant Kd for a model of one-step binding (E + L ↔ EL) was determined using Equations (2)–(5) and a non-linear regression algorithm in the OriginPro 8.1 software (OriginLab Corp., Northampton, MA, USA):(2) Kd=E[L]/[EL] (3) F=f0+f1E+f2[EL] (4) e0=E+[EL] (5) l0=L+[EL] where F is the observed fluorescence intensity at any given ligand (L) concentration; f0 is the background fluorescence; f1 and f2 are partial fluorescence intensities of the free enzyme (E) and enzyme–ligand complex (EL), respectively; e0 and l0 are total concentrations of the enzyme and ligand.
Figure S2. Equilibrium binding of the wild-type and mutant ALKBH3 proteins to transition metals, 2OG, or m3C-containing DNA. The quenching of the enzyme ﬂuorescence is shown as a function of Fe(II) (A), Ni(II) (B), Co(II) (C), 2OG ( D), and single-stranded m3C substrate (E). The protein concentration was 1 µM. In the course of titration by Fe(II), a sodium ascorbate (1mM) was added to keep the metal in a reduced state. Experimental data points were ﬁtted to a single-site binding mode l (see “Materials and Methods”). Each trace represents the average of three technical […]
(1 picture or pasted object on this page, not shown here)

Molecule	α-helices, total ([1]; sum of Table 3 components) [%]	Kd [2] [µM]	increase in α-helical content over wt ALKBH3 [1]	weakening of contacts with the DNA substrate relative to wt [2] [fold]
wt ALKBH3: wild-type human Fe(II)/2OG-dependent dioxygenase ALKBH3 with N-terminal His-tag, expressed in E. coli (protein, UniProt Q96Q83 1-286, looked up, N-terminal His-tag, wild-type human Fe(II)/2OG-dependent dioxygenase ALKBH3 with N-terminal His-tag, expressed in E. coli) Alpha-ketoglutarate-dependent …: MEEKRRRARVQGAWAAPVKSQAIAQPATTAKSHLHQKPGQTWKNKEHHLSDREFVFKEPQQVVRRAPEPRVIDREGVYEISLSPTGVSRVCLYPGFVDVKEADWILEQLCQDVPWKQRTGIREDITYQQPRLTAWYGELPYTYSRITMEPNPHWHPVLRTLKNRIEENTGHTFNSLLCNLYRNEKDSVDWHSDDEPSLGRCPIIASLSFGATRTFEMRKKPPPEENGDYTYVERVKIPLDHGTLLIMEGATQADWQHRVPKEYHSREPRVNLTFRTVYPDPRGAPW	5.2	2.8 ± 0.1	–	–
Y143A ALKBH3: ALKBH3 mutant, Tyr143 replaced with Ala (protein, UniProt Q96Q83 1-286, looked up, variant Y143A) Alpha-ketoglutarate-dependent …: MEEKRRRARVQGAWAAPVKSQAIAQPATTAKSHLHQKPGQTWKNKEHHLSDREFVFKEPQQVVRRAPEPRVIDREGVYEISLSPTGVSRVCLYPGFVDVKEADWILEQLCQDVPWKQRTGIREDITYQQPRLTAWYGELPYTASRITMEPNPHWHPVLRTLKNRIEENTGHTFNSLLCNLYRNEKDSVDWHSDDEPSLGRCPIIASLSFGATRTFEMRKKPPPEENGDYTYVERVKIPLDHGTLLIMEGATQADWQHRVPKEYHSREPRVNLTFRTVYPDPRGAPW	–	6.3 ± 0.6	3 fold	~2.3
H191A ALKBH3: ALKBH3 mutant, His191 replaced with Ala (protein, UniProt Q96Q83 1-286, looked up, variant H191A) Alpha-ketoglutarate-dependent …: MEEKRRRARVQGAWAAPVKSQAIAQPATTAKSHLHQKPGQTWKNKEHHLSDREFVFKEPQQVVRRAPEPRVIDREGVYEISLSPTGVSRVCLYPGFVDVKEADWILEQLCQDVPWKQRTGIREDITYQQPRLTAWYGELPYTYSRITMEPNPHWHPVLRTLKNRIEENTGHTFNSLLCNLYRNEKDSVDWASDDEPSLGRCPIIASLSFGATRTFEMRKKPPPEENGDYTYVERVKIPLDHGTLLIMEGATQADWQHRVPKEYHSREPRVNLTFRTVYPDPRGAPW	–	4.3 ± 0.3	up to 3.1 fold	~1.5
L177A ALKBH3: ALKBH3 mutant, Leu177 replaced with Ala (protein, UniProt Q96Q83 1-286, looked up, variant L177A) Alpha-ketoglutarate-dependent …: MEEKRRRARVQGAWAAPVKSQAIAQPATTAKSHLHQKPGQTWKNKEHHLSDREFVFKEPQQVVRRAPEPRVIDREGVYEISLSPTGVSRVCLYPGFVDVKEADWILEQLCQDVPWKQRTGIREDITYQQPRLTAWYGELPYTYSRITMEPNPHWHPVLRTLKNRIEENTGHTFNSLACNLYRNEKDSVDWHSDDEPSLGRCPIIASLSFGATRTFEMRKKPPPEENGDYTYVERVKIPLDHGTLLIMEGATQADWQHRVPKEYHSREPRVNLTFRTVYPDPRGAPW	–	5.7 ± 0.3	2.7 fold	~2
Y143F ALKBH3: ALKBH3 mutant, Tyr143 replaced with Phe (protein, UniProt Q96Q83 1-286, looked up, variant Y143F) Alpha-ketoglutarate-dependent …: MEEKRRRARVQGAWAAPVKSQAIAQPATTAKSHLHQKPGQTWKNKEHHLSDREFVFKEPQQVVRRAPEPRVIDREGVYEISLSPTGVSRVCLYPGFVDVKEADWILEQLCQDVPWKQRTGIREDITYQQPRLTAWYGELPYTFSRITMEPNPHWHPVLRTLKNRIEENTGHTFNSLLCNLYRNEKDSVDWHSDDEPSLGRCPIIASLSFGATRTFEMRKKPPPEENGDYTYVERVKIPLDHGTLLIMEGATQADWQHRVPKEYHSREPRVNLTFRTVYPDPRGAPW	–	3.8 ± 0.5	–	~1.4
